{"source": "paper PMC9646525", "about": "“Cryo-EM structure of the SEA complex” (Nature, 2022)", "key": {"[1]": {"target": "T1, Sea3 (S. cerevisiae (endogenous in yeast …, UniProt Q03897 1-1148))", "T1 construct": "Sea3, S. cerevisiae, endogenous subunit of the SEAC; Sea3^SIP (Sea3^Nter) lies in the wing, Sea3^SAP (Sea3^Cter) in the core; Native protein of the purified complex; two copies in the SEAC; source: endogenous, yeast cells expressing Sea4-TAP; in lysate and co-purified with Sea4-TAP (IgG Dynabeads, TEV elution)", "T1 sequence (looked up)": "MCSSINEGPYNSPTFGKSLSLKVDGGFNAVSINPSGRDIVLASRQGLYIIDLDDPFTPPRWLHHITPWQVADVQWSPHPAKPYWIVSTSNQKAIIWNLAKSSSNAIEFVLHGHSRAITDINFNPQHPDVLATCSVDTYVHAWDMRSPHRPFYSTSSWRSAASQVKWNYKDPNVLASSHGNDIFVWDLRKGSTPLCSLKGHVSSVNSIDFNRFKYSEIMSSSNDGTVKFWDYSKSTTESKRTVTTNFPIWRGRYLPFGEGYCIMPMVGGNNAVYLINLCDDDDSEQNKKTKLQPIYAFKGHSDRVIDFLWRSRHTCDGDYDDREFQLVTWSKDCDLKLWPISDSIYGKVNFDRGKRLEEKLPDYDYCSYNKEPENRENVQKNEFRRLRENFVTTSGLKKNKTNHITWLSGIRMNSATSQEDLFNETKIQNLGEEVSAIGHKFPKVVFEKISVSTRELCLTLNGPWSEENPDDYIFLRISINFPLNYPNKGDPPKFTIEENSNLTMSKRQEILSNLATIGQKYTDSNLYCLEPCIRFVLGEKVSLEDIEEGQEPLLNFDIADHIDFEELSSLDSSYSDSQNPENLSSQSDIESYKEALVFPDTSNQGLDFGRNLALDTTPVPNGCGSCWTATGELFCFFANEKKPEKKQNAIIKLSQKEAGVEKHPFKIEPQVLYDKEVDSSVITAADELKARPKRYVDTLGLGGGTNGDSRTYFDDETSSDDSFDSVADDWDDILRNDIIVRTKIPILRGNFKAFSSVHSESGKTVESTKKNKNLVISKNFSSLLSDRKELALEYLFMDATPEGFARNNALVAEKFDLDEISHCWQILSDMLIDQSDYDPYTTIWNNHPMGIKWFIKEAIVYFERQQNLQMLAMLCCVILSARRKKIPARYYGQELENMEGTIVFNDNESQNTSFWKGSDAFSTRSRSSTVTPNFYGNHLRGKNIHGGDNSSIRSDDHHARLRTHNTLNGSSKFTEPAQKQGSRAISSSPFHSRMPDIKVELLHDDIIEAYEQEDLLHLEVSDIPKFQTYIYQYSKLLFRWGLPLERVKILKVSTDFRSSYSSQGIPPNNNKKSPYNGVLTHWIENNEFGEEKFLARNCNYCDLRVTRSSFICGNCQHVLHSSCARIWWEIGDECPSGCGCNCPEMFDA", "experiment": "co-IP; Sea4-TAP captured from cleared yeast lysate on IgG-coupled Dynabeads, washed, eluted with TEV protease, Coomassie-stained SDS-PAGE; 4 °C, 20 mM HEPES-NaOH pH 7.4, 300 mM NaCl, 5 mM CHAPS, 10% glycerol; wild-type, ΔNpr3, Npr2^R84A and Sea1^R943A strains", "conditions": "partners not purified"}, "[2]": {"target": "T2, Sea2 (S. cerevisiae (endogenous in yeast …, UniProt Q08281 1-1341))", "T2 construct": "Sea2, S. cerevisiae, endogenous subunit of the SEAC (SEACAT, core); Native protein of the purified complex; two copies in the SEAC; source: endogenous, yeast cells expressing Sea4-TAP; in lysate and co-purified with Sea4-TAP (IgG Dynabeads, TEV elution)", "T2 sequence (looked up)": "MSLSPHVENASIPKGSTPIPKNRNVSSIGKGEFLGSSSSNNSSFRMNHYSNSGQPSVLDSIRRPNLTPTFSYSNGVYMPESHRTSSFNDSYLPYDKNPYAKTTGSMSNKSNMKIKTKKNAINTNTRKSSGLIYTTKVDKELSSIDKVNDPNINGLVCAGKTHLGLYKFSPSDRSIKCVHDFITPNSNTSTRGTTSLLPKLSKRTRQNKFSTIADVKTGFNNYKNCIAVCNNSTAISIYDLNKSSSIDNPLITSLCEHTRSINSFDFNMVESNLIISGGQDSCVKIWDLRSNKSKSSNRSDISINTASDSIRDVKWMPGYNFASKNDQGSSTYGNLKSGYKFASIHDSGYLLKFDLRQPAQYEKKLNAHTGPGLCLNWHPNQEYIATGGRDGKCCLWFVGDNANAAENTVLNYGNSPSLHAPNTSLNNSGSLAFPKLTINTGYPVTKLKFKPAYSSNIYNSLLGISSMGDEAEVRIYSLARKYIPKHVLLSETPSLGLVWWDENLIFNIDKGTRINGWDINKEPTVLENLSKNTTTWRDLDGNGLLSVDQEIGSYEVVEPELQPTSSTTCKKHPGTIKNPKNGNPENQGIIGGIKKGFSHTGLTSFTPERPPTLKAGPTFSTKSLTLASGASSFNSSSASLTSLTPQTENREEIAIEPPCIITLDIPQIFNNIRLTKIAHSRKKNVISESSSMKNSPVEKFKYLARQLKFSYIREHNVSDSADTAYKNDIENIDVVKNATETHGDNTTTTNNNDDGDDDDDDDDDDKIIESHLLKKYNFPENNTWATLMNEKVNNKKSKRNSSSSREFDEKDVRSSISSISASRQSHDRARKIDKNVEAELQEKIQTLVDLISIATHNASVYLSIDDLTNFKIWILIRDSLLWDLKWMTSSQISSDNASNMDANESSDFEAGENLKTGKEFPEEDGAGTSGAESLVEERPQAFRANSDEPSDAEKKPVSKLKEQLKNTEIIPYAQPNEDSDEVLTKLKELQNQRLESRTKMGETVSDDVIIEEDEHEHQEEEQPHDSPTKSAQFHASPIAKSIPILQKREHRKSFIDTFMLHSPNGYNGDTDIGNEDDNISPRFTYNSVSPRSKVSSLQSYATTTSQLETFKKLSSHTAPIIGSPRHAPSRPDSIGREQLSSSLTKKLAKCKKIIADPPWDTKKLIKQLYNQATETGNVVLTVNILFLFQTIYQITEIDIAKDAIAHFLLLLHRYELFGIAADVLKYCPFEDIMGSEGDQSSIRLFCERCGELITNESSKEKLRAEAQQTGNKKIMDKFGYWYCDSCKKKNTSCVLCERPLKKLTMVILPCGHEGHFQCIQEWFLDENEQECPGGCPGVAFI", "experiment": "co-IP; Sea4-TAP captured from cleared yeast lysate on IgG-coupled Dynabeads, washed, eluted with TEV protease, Coomassie-stained SDS-PAGE; 4 °C, 20 mM HEPES-NaOH pH 7.4, 300 mM NaCl, 5 mM CHAPS, 10% glycerol; wild-type, ΔNpr3, Npr2^R84A and Sea1^R943A strains", "conditions": "partners not purified"}}, "data": [{"binder": "Sea4-TAP (natural protein, UniProt P38164 1-1038, looked up, Sea4, S. cerevisiae, endogenous subunit of the SEAC (SEACAT, core), TAP-tagged; Captured by the TAP tag on IgG beads; the complex was released with TEV protease before SDS-PAGE and cryo-EM; Written 'Sea4-TAP'; Four copies in the SEAC; source: endogenous, yeast cells expressing Sea4-TAP; in lysate, purified on IgG-coupled Dynabeads and eluted with TEV protease) MGLIKKVTHWSYDNLIDYLSVNPTRDEVTHYKVDPENESDESIIKLHTVKDFGSITCLDYSESEIGMIGVGEKNGYLRIFNISGQNSSSPASHAPVGLNANNETSMTNASGGKAAQAENIVGSVSNLKDTQGYPVSETNYDIRVRAKKQRCINSLGINTNGLIAMGLDRNKHDSSLQIWDMNYHDDSHETINPMFSYCTNESIVSLKFLNDTSVLAASTKFLKEIDVRSPNPIYQHPTRLTYDIKLNPFNDWQFSTYGDDGTLAIWDRRKLSDQASLGDLNVASPLLTFEKLVGSGAASRKYMNSCFRWSCVRNNEFATLHRGDTIKRWRLGYYCDSNRDIAADDDNEMNIENLFVSSVHDTNTMYDRVATFDYIPRSNNGTSLICMRQSGTIYRMPISEVCSKAILNNRNSLLLSNFENTEIDEIRVNNEHEKSNLENVKTILKNLSFEDLDVSEDYFPSGHDEPNNEIEYSELSEEENEGSNDVLDSKRGFELFWKPEKLLEKDISVIMRTRASLGYGLDPMNTVEMIDSSKNLQNNAYIRNTWRWIAIAKASVDDGTMVSGDLDLGYEGVIGIWNGINGISNQDRYRQETILSDKQLNKEMEKIIKLRRKNRDRNSPIANAAGSPKYVQRRLCLIISGWDLSRSDYEDKYNIIMKNGHYEKAAAWAVFFGDIPKAVEILGSAKKERLRLIATAIAGYLAYKDLPGNNAWRQQCRKMSSELDDPYLRVIFAFIADNDWWDILYEPAISLRERLGVALRFLNDTDLTTFLDRTSSTVIENGELEGLILTGITPNGIDLLQSYVNKTSDVQSAALISIFGSPRYFRDQRVDEWIQTYRDMLKSWELFSMRARFDVLRSKLSRTKTGVLTADIKPRQIYIQCQNCKQNINTPRTSSPSSAVSTSAGNYKNGEAYRRNNADYKKFNTGSSEAQAADEKPRHKYCCPHCGSSFPRCAICLMPLGTSNLPFVINGTQSRDPMQTEDSQDGANRELVSRKLKLNEWFSFCLSCNHGMHAGHAEEWFDRHNVCPTPGCTCQCNK", "values": [{"measurement": "binding result", "setting": "[1]", "result": "binds"}, {"measurement": "binding result", "setting": "[2]", "result": "binds"}]}]}
